# Test results: the RNAGym collection of RNA variant scans (doi:10.1073/pnas.2313332121)
# B1: TPR t1 (parent)
# chain: GACCAAUCUGCCCUCAGAGCUCGAGAACAUCUUCGGAUGCAGAGGAGGCAGGCUUCGGUGGCGCGAUAGCGCCAACGUCCUCAACCUCCAAUGCAUCCCACCACAUGAUGAUGCCUGAAGAGCCUUGGUUUUUUG
# Variants of: B1
# Assay: polymerase ribozyme fitness, log enrichment relative to wild type (log ratio); higher = more active; in vitro selection for triplet polymerase activity
# Procedure, shortened: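 Genotype fitness is the logarithm of its enrichment divided by wild-type enrichment, using inverse-variance-weighted averages of replicates. That logarithm is base 2. Enrichment was measured by Illumina sequencing of input and output libraries from one triplicate in vitro selection round, with frozen incubation at −7 °C, on PCR-built, transcribed mutant libraries of each subunit of a heterodimeric triplet polymerase ribozyme, retaining genotypes with ≥10 input reads and ≥1 read per output.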
row,Variant,polymerase ribozyme fitness (log ratio)
1,C72U U112A,0.821
2,C72U U112C,1.19
3,C72G A121C,1.48
4,C72U G113A,-1.48
5,C73U A90G C124A,1.85
6,C72U U133C,0.275
7,C72A G120A,1.06
8,C72A C86U,-0.17
9,C72A C80U C88U,-0.793
10,C73A G127U,-0.602
11,C72G C101G,-1.33
12,C72G C104A U116A,-5.17
13,C72U C89A,-1.22
14,C73A A111C,0.669
15,C72A G110A U131A,-0.37
16,C72U G93U A111G,-2.76
17,C73A A118G,0.164
18,C72U G93A,-0.542
19,C72U G93U,-1.56
20,C72A C124U U131A,1.33
21,C73G C94G,-1.94
22,C73G C94A,-2.58
23,C72G C85G,-1.98
24,C72G C85A,-1.82

row,Variant,polymerase ribozyme fitness (log ratio)
1,C72G C79G,-1.67
2,C73G C115A,-1.04
3,C72U C76A C88A U96A,-3.05
4,C72G G110A,-1.14
5,C73A C104A U116G C124A,-1.19
6,C73A C123U,1.47
7,C73U U81A U116G U125A,-4.02
8,C73A C88U C99A A100C,-3.87
9,C73G G113U,-2.74
10,C72G U78A U109A G128A,-5.92
11,C72U C76U A121C,1.1
12,C72U C89G G113C,-3.26
13,C72U G117C,-2.69
14,C73U C102U U131C,-1.19
15,C73A C101A,-1
16,C73U C82U A91U A100U,-3.21
17,C72U C86A,-0.584
18,C73G A90G G113U A118C,-5.26
19,C72U C123G,0.829
20,C73U A119U,-0.348
21,C73U A119G,1.13
22,C73A G128A,-2.12
23,C72U C124G,1.47
24,C72A C123U,1.5

row,Variant,polymerase ribozyme fitness (log ratio)
1,C72A C123A,0.479
2,C72U C94G A95G C123U,-0.867
3,C72G C104U,-0.348
4,C73U G93C C124U U125C,-1.39
5,C72A G135U,-0.828
6,C73U G113A G117A,-6.9
7,C73U C94U G113U,-3.64
8,C73U U109C,-3.63
9,C73U U109G,-4.33
10,C73A G122A,-0.64
11,C72G C73U C86G,-5.02
12,C72G G120C G128C,-3.07
13,C72U U78C G117U G122A U130G,-2.87
14,C72A C85A A121C,1.56
15,C73A U78C,-0.268
16,C72A G110U,-1.54
17,C72U G77U C104A,-2.21
18,C72A C89A C124G,0.634
19,C72U A118G,-0.902
20,C73U A103G,-4.17
21,C73U U106C,-0.194
22,C73G A90C,-2.17
23,C73U C115A,-0.495
24,C73U G117U,-1.43

row,Variant,polymerase ribozyme fitness (log ratio)
1,C73U G117C,-2.95
2,C72G A83G,-0.0856
3,C72G C97U G122A,-1.57
4,C72G C88G C115U,-3.24
5,C72U C86U G117A,-2.26
6,C72U U78G,-1.7
7,C72G C98U A105C,-4.92
8,C72G A90G G110U G135C,-2
9,C73U C79G G113U,-5.88
10,C72G A103U,-5.45
11,C73A C98A,-4.94
12,C73U U96A A108G C114A,-5.25
13,C72A U78A C124A U132C U133A,1.3
14,C72A C86U A108U,-5.12
15,C72G C102U,-1.53
16,C72U U132A,-0.0764
17,C73A U81G C88A U112G C115A U125A,-5.14
18,C72U A91U,-1.73
19,C73G U92A,-5.66
20,C72G U92A U126G U129A,-6.86
21,C72G A95U,-1.07
22,C72A C82A U96G A100U C115A,-3.23
23,C72G C86A G93C C104G A108U U109G A118G,-6.21
24,C73U C115G U132A,-1.49

row,Variant,polymerase ribozyme fitness (log ratio)
1,C72G U132C,-0.428
2,C73U A91C,-1.74
3,C73A C102A,-2.07
4,C72A C86G C89U,-1.07
5,C72G C88A C94U G120C,-1.57
6,C72A A121U,2.22
7,C73A G93C,-0.962
8,C72A U78G,-1.71
9,C72U C82G G113U,-4.51
10,C72U C94G,-1.95
11,C72U C123A U126G,-1.44
12,C72G U133G,0.34
13,C73U C102A,-1.58
14,C72G C86A U87A,-4.6
15,C72A C102U,-1.48
16,C73G G120C,0.461
17,C73A U132A,0.117
18,C72G G135C,-1.17
19,C72G G135U,-0.702
20,C73G C97G C114A A121G,-5.74
21,C72A C79A,-0.505
22,C73A G77A,-0.332
23,C73U A100U G110A,-1.9
24,C72U G122U,0.145

row,Variant,polymerase ribozyme fitness (log ratio)
1,C73G C82U,-0.556
2,C72A C85U A90C,-1.5
3,C73A A74G,-0.555
4,C73U C85G,-2.85
5,C73U C85U,-0.444
6,C73U C86A C97U C102U,-4.11
7,C72A U132A,-0.00723
8,C72G C86G U92A A111G G128U U132C,-6.17
9,C72U A90C,-1.33
10,C72A G93C C114U C115U,-6.52
11,C72G C85U C86U,-2.99
12,C72G C88U U92A,-3.52
13,C73G C123U,0.00475
14,C73U G107A A108G G120A C124A,-3.12
15,C73G U96G C115G,-3.54
16,C72U A74C,0.54
17,C72U U78C C97U,-1.02
18,C72A C94U G120C,1.05
19,C73U C80U,-0.17
20,C72G U129G,-1.34
21,C72G U129A,-1.02
22,C72U A105U,-2.43
23,C72G U131A,-0.469
24,C73A U109C,-2.34

row,Variant,polymerase ribozyme fitness (log ratio)
1,C72G C82G A105C,-4.16
2,C72A C73U,-0.581
3,C73G C80U C123G,-0.835
4,C72U A95G C98U G113A A118G,-4.04
5,C72U C85U C104G U112A G122U U133G,-6.97
6,C72A U96A U109G,-6.14
7,C73U G120C,1.2
8,C72A U131A G135U,0.0704
9,C73U U87A C115A,-0.423
10,C72U G117C U125G,-5.63
11,C73A C104A A108G U112A A118G G122U,-5.56
12,C72G C123A,-0.175
13,C73G U81A C85U C115U,-5.48
14,C72A C82G,-0.603
15,C73A U78C A90C A91U U109G,-7.04
16,C72U U78C C94U,-0.922
17,C73G U87A G122A,-4.5
18,C72U A84G C114A C115A,-6.51
19,C72U G113C C123G,-1.69
20,C73A C102U U125G,-2.45
21,C73U C76A A103U G120C,-5.45
22,C72A U129A,-1.32
23,C73G C97U A118U,-1.07
